Test results reported in patent US20160271157A1, “BETA-CATENIN” (UCL BUSINESS PLC, priority 2013, published 2016).

Key:
Assay type in all cases: cell-based
[1] = system: Wnt induced calcium release; experiment: Wnt induced [Ca2+]i release after preincubation with thapsigargin or membrane potential regulating compounds; settings: preincubation 5 min; Wnt 9B 0.1 μg/ml as example; CsCl 5 mM; CdCl2 1 mM; TEA 10 mM; Amiodarone 75 μM; Tolbutamide 1 mM; Isradipine 100 μM; Nifedipine 1 mM; Minoxidil 25 μM; Atenolol 37.5 μM; Propanolol 50 μM; Furosemide 150 μM
Procedure: The imaging protocol was developed in the inventor's laboratory and has been described in detail, elsewhere (Wang at al., (2010) PLoS ONE 5, e10456). Briefly, 100000-200000 PC3, MCF7, 253J or Cos 7 cells were plated on 35 mm FluoroDish (WPI) and grown for 48 h; calcium indicators Fluo-4 (Invitrogen) and FuraRed (Invitrogen) at 1 ng/ml were added to FluoroDish containing only 1 ml of culture medium and incubated for 15-20 min at 37° C. The culture medium was removed and washed (×2) and replaced with 1 ml PBS. Live cell calcium Imaging was performed on an Olympus FluoView FV 1000 confocal microscope (Olympus KeyMed) equipped with a 20× dry objective (numerical aperture=0.75). Calcium indicators were excited with an argon laser line (488 nm) and emissions recorded in the green channel (500-560 nm) for Fluo-4 and red channel (600-700 nm) for FuraRed after addition of vehicle control (PBS) or Wnt X (30-600 ng/ml). Images were acquired every 1.1 or 2.2 seconds for up to 600-800s; image and data acquisition was performed using FluoView 1000 software (Olympus, UK). Fluorescent intensity was measured and data exported as a tab delimited file for further analysis using a spreadsheet. All imaging experiments were performed in duplicate; intracellular calcium at 100 ng/ml was measured in at least 3-12 different passages (passage numbers 25 to 37) of cell line for each Wnt ligand. Wnt 11 was tested in at least 5 different passages at 3 different concentrations. […]
To measure the effect of changes in membrane potential on [Ca^2+]i release using the protocol described above, in some experiments, external solution (PBS) was substituted with varying concentrations of KCl. In other experiments chemical inhibitors of K^+ channels such as TEA, CsCl or tolbutamide (Sigma-Aldrich) were added to the cells grown on FluoroDish, at 37° C., at least 5 min prior to addition of Wnt ligands.
(§1) After image acquisition, regions of interest (ROI) were drawn over individual PC3 cells (up to 25) in a single frame and calcium intensity measurements were made using FluoView 1000 software (Olympus, UK). The measurements were exported as a tab delimited file into a spreadsheet for further analysis and Fluo4/Fura Red ratios were calculated. The waveform, a product of the ratio of Fluo4 and FuraRed over the period of measurement was used to measure the kinetics of the activation of [Ca^2+]i release in PC3 cells, in response to different Wnt ligands. The time constants (rise, dwell and fall times) were calculated by first fitting the Fluo4/FuraRed ratio to a single Gaussian function (Origin Lab Corp., MA); a lower (10%) and upper (90%) amplitude thresholding method was then used to calculate the time constants (s). Statistical significance was calculated using Mann Whitney U test.

[2] = system: β-catenin translocation to the nucleus; experiment: β-catenin immunocytochemistry and nuclear co-localization analysis, PC3; settings: PC3 cells; for Pearson coefficient of nuclear co-localization of β-catenin: Wnt 100 ng/ml vs control, p<0.001 Mann Whitney test
Procedure: Immunostaining was performed in two different laboratories, independently with the experimenter blind to the identity of the treatment. Either cells used in FluoroDish, post [Ca^2+]i experiments using dyes (see above) or grown in 8 well chamber glass slides (Lab Tek II, Nunc) were used. For Wnt ligand treatment, the culture medium replaced with PBS (without calcium) at 37° C. The experiments were replicated for Wnt ligand or vehicle control as described for [Ca^2+]i measurements. Briefly, Wnt ligands were added and chamber slides incubated at 37° C. for up to 20 min. Chamber wells were washed 3× with 0.5 ml PBS and cells were fixed with 0.5 ml 4% formalin for 30 min at 4° C. Cells were washed 3× with ice cold PBS and stored in 0.5 ml PBS at 4° C. for immunostaining. In some experiments PC3 cells were treated with thaspsigargin as described above.
For immunostaining cells were washed twice for 5 minutes in TBST (20 mM Tris pH 7.4, 0.9% NaCl, 0.1% Tween 20, Sigma). Cells were then incubated in 20% normal goat serum (NGS)/TBST for 30 min at room temperature, the chambers were drained and cells were incubated with mouse anti-β-catenin (ab22656, Abcam, UK) at 1:500 dilution in NGS/TBST overnight at 4° C. Following two further 5 min washes in TBST sections were incubated in goat anti-mouse peroxidase fab (Abcam, UK) at 1:500 dilution for 30 min at room temperature. Following a further two 5 min washes in TBST cells were incubated with tyramide Cy3 (Perkin Elmer) for 10 min at room temperature. Sections were washed twice for 5 min in TBST before nuclear counterstaining with DAPI. After a final two 5 min washes, the chambers were removed and cover slip placed on slides using Permafluor (Thermo Shandon).
Fluorescence immunocytochemical staining for β-catenin expression in cell lines was imaged using Olympus Fluoview 1000 Confocal Microscope (Olympus KeyMed) mounted on an Olympus IX81 inverted microscope using a 20×0.7 NA or 40×1.0 NA dry objective with a zoom of ×3.4′,6-diamidino-2-phenylindole (DAPI, nuclear counterstain) was excited at 405 nm with an emission of 415-500 nm; Cy3 (β-catenin label) signal was excited at 561 nm with an emission spectrum between 570-670 nm. […] Z-stacks of at least 3 fields per sample were imaged and saved in Olympus FV (OIF or OIB) file format.
Nuclear co-localization of β-catenin was calculated by importing FV files for untreated, control or treated cells, into colocalization plugin of Fiji software (http://fiji.sc/Fiji) for Cy3 (β-catenin) and DAPI (nuclear) signals. Pearson co-relation of colocalization were tabulated for 25-90 cells (from 2-5 different passages of cells) using ROI analysis. Statistical significance between untreated and treated cells was calculated using Mann Whitney U test.

[3] = system: PC3 prostate cancer cell line; experiment: Live [Ca2+]i imaging (Fluo4/FuraRed ratio) after addition of Wnt ligand; settings: PC3 cells; for intracellular calcium mobilization ([Ca2+]i release) in response to Wnt ligand: 100 ng/ml Wnt ligand peptide, ratio of Fluo4/Fura Red; for rise and fall time of [Ca2+]i release: Wnt peptide 100 ng/ml; for dependence of time constants (dwell time) on Wnt ligand concentration / co-operativity: three concentrations of each Wnt ligand, first-order fit
Procedure: The imaging protocol was developed in the inventor's laboratory and has been described in detail, elsewhere (Wang at al., (2010) PLoS ONE 5, e10456). Briefly, 100000-200000 PC3, MCF7, 253J or Cos 7 cells were plated on 35 mm FluoroDish (WPI) and grown for 48 h; calcium indicators Fluo-4 (Invitrogen) and FuraRed (Invitrogen) at 1 ng/ml were added to FluoroDish containing only 1 ml of culture medium and incubated for 15-20 min at 37° C. The culture medium was removed and washed (×2) and replaced with 1 ml PBS. Live cell calcium Imaging was performed on an Olympus FluoView FV 1000 confocal microscope (Olympus KeyMed) equipped with a 20× dry objective (numerical aperture=0.75). Calcium indicators were excited with an argon laser line (488 nm) and emissions recorded in the green channel (500-560 nm) for Fluo-4 and red channel (600-700 nm) for FuraRed after addition of vehicle control (PBS) or Wnt X (30-600 ng/ml). Images were acquired every 1.1 or 2.2 seconds for up to 600-800s; image and data acquisition was performed using FluoView 1000 software (Olympus, UK). Fluorescent intensity was measured and data exported as a tab delimited file for further analysis using a spreadsheet. All imaging experiments were performed in duplicate; intracellular calcium at 100 ng/ml was measured in at least 3-12 different passages (passage numbers 25 to 37) of cell line for each Wnt ligand. Wnt 11 was tested in at least 5 different passages at 3 different concentrations. To test if the Wnt activated calcium release was from [Ca^2+]i stores, in some cases PC3 cells, loaded with calcium dyes, were incubated with 1-5 μM of thapsigargin (Sigma, UK), resuspended in dimethyl sulfoxide (DMSO), for 20 min at 37° C., prior to addition of Wnt ligand and live calcium imaging (as described above).
The experiments were performed using 35 mm, glass bottom, FluoroDish containing 1 ml PBS, at 37° C., to which ligands were added at desired concentration. In a static, non-superfusing assay system there is a lag time before the start of a response, in this case an increase in the intensity of the Fluo4 signal due to the release of free calcium. To measure the diffusion constant under these conditions we used Pontamine Sky Blue (Sigma Aldridge), which fluoresces in the red spectrum with 488 nm excitation, using standard practice for adding ligands; the diffusion constant was measured to be 23.3±2.1 μm·s^−1 (means±S.E.M, n=8). The calcium wave, in response to Wnt ligands, travelled across the FluoroDish.
as §1

CC(C)NCC(O)COc1ccc(CC(N)=O)cc1 (centres unmarked) [Atenolol]
Wnt ligand induced calcium release after preincubation with MPRC (FIG. 16) [1]: inhibited

CCCCc1oc2ccccc2c1C(=O)c1cc(I)c(OCCN(CC)CC)c(I)c1 [Amiodarone]
Wnt ligand induced calcium release after preincubation with MPRC (FIG. 16) [1]: inhibited

C[C@@H]1O[C@@H](O[C@H]2C[C@@H](O)[C@]3(CO)[C@H]4[C@H](O)C[C@]5(C)[C@@H](C6=CC(=O)OC6)CC[C@]5(O)[C@@H]4CC[C@]3(O)C2)[C@H](O)[C@H](O)[C@H]1O [Ouabain, reference compound]
β-catenin translocation to the nucleus after pretreatment with Ouabain (FIG. 21) ([2]; Wnt5A treated): increases

B1: Wnt11: Recombinant Wnt peptide purchased from R&D systems (protein, UniProt O96014 25-354, looked up)
Protein Wnt-11: IKWLALSKTPSALALNQTQHCKQLEGLVSAQVQLCRSNLELMHTVVHAAREVMKACRRAFADMRWNCSSIELAPNYLLDLERGTRESAFVYALSAAAISHAIARACTSGDLPGCSCGPVPGEPPGPGNRWGGCADNLSYGLLMGAKFSDAPMKVKKTGSQANKLMRLHNSEVGRQALRASLEMKCKCHGVSGSCSIRTCWKGLQELQDVAADLKTRYLSATKVVHRPMGTRKHLVPKDLDIRPVKDSELVYLQSSPDFCMKNEKVGSHGTQDRQCNKTSNGSDSCDLMCCGRGYNPYTDRVVERCHCKYHWCCYVTCRRCERTVERYVCK
intracellular calcium mobilization ([Ca2+]i release) in response to Wnt ligand [3]: did not mobilize [Ca^2+]i

B2: Wnt3A: Recombinant Wnt peptide purchased from R&D systems (protein, UniProt P56704 19-352, looked up)
Protein Wnt-3a: SYPIWWSLAVGPQYSSLGSQPILCASIPGLVPKQLRFCRNYVEIMPSVAEGIKIGIQECQHQFRGRRWNCTTVHDSLAIFGPVLDKATRESAFVHAIASAGVAFAVTRSCAEGTAAICGCSSRHQGSPGKGWKWGGCSEDIEFGGMVSREFADARENRPDARSAMNRHNNEAGRQAIASHMHLKCKCHGLSGSCEVKTCWWSQPDFRAIGDFLKDKYDSASEMVVEKHRESRGWVETLRPRYTYFKVPTERDLVYYEASPNFCEPNPETGSFGTRDRTCNVSSHGIDGCDLLCCGRGHNARAERRREKCRCVFHWCCYVSCQECTRVYDVHTCK
intracellular calcium mobilization ([Ca2+]i release) in response to Wnt ligand [3]: induce intracellular calcium mobilization | rise and fall time of [Ca2+]i release [3]: shortest | dependence of time constants (dwell time) on Wnt ligand concentration / co-operativity [3]: negative co-operativity | Pearson coefficient of nuclear co-localization of β-catenin [2]: significant increase

B3: Wnt4: Recombinant Wnt peptide purchased from R&D systems (protein, UniProt P56705 23-351, looked up)
Protein Wnt-4: SNWLYLAKLSSVGSISEEETCEKLKGLIQRQVQMCKRNLEVMDSVRRGAQLAIEECQYQFRNRRWNCSTLDSLPVFGKVVTQGTREAAFVYAISSAGVAFAVTRACSSGELEKCGCDRTVHGVSPQGFQWSGCSDNIAYGVAFSQSFVDVRERSKGASSSRALMNLHNNEAGRKAILTHMRVECKCHGVSGSCEVKTCWRAVPPFRQVGHALKEKFDGATEVEPRRVGSSRALVPRNAQFKPHTDEDLVYLEPSPDFCEQDMRSGVLGTRGRTCNKTSKAIDGCELLCCGRGFHTAQVELAERCSCKFHWCCFVKCRQCQRLVELHTCR
intracellular calcium mobilization ([Ca2+]i release) in response to Wnt ligand [3]: induce intracellular calcium mobilization | rise and fall time of [Ca2+]i release [3]: slowest | dependence of time constants (dwell time) on Wnt ligand concentration / co-operativity [3]: negative co-operativity | Pearson coefficient of nuclear co-localization of β-catenin [2]: significant increase

B4: Wnt7A: Recombinant Wnt peptide purchased from R&D systems (protein, UniProt O00755 32-349, looked up)
Protein Wnt-7a: LGASIICNKIPGLAPRQRAICQSRPDAIIVIGEGSQMGLDECQFQFRNGRWNCSALGERTVFGKELKVGSREAAFTYAIIAAGVAHAITAACTQGNLSDCGCDKEKQGQYHRDEGWKWGGCSADIRYGIGFAKVFVDAREIKQNARTLMNLHNNEAGRKILEENMKLECKCHGVSGSCTTKTCWTTLPQFRELGYVLKDKYNEAVHVEPVRASRNKRPTFLKIKKPLSYRKPMDTDLVYIEKSPNYCEEDPVTGSVGTQGRACNKTAPQASGCDLMCCGRGYNTHQYARVWQCNCKFHWCCYVKCNTCSERTEMYTCK
intracellular calcium mobilization ([Ca2+]i release) in response to Wnt ligand [3]: induce intracellular calcium mobilization | dependence of time constants (dwell time) on Wnt ligand concentration / co-operativity [3]: no difference
